Numbering of substitutions follows the chain as printed.
T1: Human CD19-his protein (human, UniProt P15391 20-291)
T1 construct: bought protein; also called recombinant human CD19-His; CD19 full-length protein; not shown: His tag
T1 sequence (looked up): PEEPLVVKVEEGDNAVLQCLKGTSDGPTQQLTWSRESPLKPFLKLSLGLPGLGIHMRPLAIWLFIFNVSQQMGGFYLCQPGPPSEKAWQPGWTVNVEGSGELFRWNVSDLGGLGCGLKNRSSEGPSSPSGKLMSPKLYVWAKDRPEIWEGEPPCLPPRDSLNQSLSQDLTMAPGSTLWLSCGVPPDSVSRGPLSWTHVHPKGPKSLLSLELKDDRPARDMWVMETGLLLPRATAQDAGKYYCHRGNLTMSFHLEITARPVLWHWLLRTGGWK

T2: human CD19 on CHO-K1-human CD19 cells (human, UniProt P15391 20-556)
T2 construct: whole, on cells; also called CHO-K1-human CD19-2C8
T2 sequence (looked up): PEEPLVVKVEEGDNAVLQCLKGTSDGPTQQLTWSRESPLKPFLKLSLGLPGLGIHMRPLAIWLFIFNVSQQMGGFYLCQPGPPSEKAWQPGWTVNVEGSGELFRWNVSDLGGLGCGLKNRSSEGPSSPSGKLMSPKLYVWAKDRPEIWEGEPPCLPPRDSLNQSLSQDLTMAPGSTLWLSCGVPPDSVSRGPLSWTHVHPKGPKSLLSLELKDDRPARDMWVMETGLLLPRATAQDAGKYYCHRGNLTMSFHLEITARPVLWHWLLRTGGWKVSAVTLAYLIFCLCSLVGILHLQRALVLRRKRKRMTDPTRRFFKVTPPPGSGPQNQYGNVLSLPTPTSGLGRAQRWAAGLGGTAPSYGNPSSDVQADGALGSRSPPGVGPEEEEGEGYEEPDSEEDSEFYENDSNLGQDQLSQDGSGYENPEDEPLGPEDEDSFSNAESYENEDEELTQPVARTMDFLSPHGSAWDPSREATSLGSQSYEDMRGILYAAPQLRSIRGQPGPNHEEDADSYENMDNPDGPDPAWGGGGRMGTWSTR

T3: human CD19 on Raji cells (human, UniProt P15391 20-556)
T3 construct: whole, on cells
T3 sequence (looked up): T2 sequence (looked up)

T4: human CD19 exon1-3-His tag protein (human, UniProt P15391 20-186, limits assumed)
T4 construct: membrane-distal part of the extracellular region, made in HEK293E cells; not shown: His tag
T4 sequence (looked up): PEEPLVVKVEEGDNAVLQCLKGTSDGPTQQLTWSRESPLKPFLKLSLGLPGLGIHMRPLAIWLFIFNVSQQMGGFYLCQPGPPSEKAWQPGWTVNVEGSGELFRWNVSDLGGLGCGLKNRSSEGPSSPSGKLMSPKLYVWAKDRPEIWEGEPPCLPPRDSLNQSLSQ

B1: F3.121.4-L1H2 (antibody, mouse IgG1, kappa, V domains shown)
VH: EVQLVQSGAEVKKPGASVKVSCKASGYTFTNYWMHWVRQAPGQGLEWMGEIDPSDNYANYNQEFQGRVTITVDKSASTAYMELSSLRSEDTAVYYCARHDGYFGALDYWGQGTTVTVSS
VL: EIVLTQSPATLSLSPGERATLSCSASSSISSNYLHWYQQKPGQAPRFLIYRTSNLASGIPARFSGSGSGTDFTLTISSLEPEDFAVYYCQQASSIPRMFTFGQGTKLEIKR
notes: humanized antibody of F3.121.4, VL1+VH2, murine IgG1 constant regions
B2: F3.121.4-L1H1 (antibody, mouse IgG1, kappa, V domains shown)
VH: B1 VH with G44R
VL: B1 VL
notes: humanized antibody of F3.121.4, VL1+VH1, murine IgG1 constant regions
B3: F3.121.4-L1H3 (antibody, mouse IgG1, kappa)
heavy: EVQLVQSGAEVKKPGASVKVSCKASGYTFTNYWMHWVRQRPGQGLEWMGEIDPSDNYANYNQEFQGRVTITVDKSASTAYMELSSLRSEDTAVYYCARHDGYFGALDYWGQGTTVTVSSAKTTPPSVYPLAPGSAAQTNSMVTLGCLVKGYFPEPVTVTWNSGSLSSGVHTFPAVLQSDLYTLSSSVTVPSSTWPSETVTCNVAHPASSTKVDKKIVPRDCGCKPCICTVPEVSSVFIFPPKPKDVLTITLTPKVTCVVVDISKDDPEVQFSWFVDDVEVHTAQTQPREEQFNSTFRSVSELPIMHQDWLNGKEFKCRVNSAAFPAPIEKTISKTKGRPKAPQVYTIPPPKEQMAKDKVSLTCMITDFFPEDITVEWQWNGQPAENYKNTQPIMDTDGSYFVYSKLNVQKSNWEAGNTFTCSVLHEGLHNHHTEKSLSHSPGK
light: EIVLTQSPATLSLSPGERATLSCSASSSISSNYLHWYQQKPGQAPRFLIYRTSNLASGIPARFSGSGSGTDFTLTISSLEPEDFAVYYCQQASSIPRMFTFGQGTKLEIKRADAAPTVSIFPPSSEQLTSGGASVVCFLNNFYPKDINVKWKIDGSERQNGVLNSWTDQDSKDSTYSMSSTLTLTKDEYERHNSYTCEATHKTSTSPIVKSFNRNEC
notes: humanized antibody of F3.121.4, VL1+VH3, murine IgG1 constant regions
B4: F3.121.4-L1H4 (antibody, mouse IgG1, kappa)
heavy: B3 heavy with V5Q
light: B3 light
notes: humanized antibody of F3.121.4, VL1+VH4, murine IgG1 constant regions
B5: F3.121.4-L2H2 (antibody, mouse IgG1, kappa, V domains shown)
VH: B1 VH
VL: EIVLTQSPDFQSVTPKEKVTITCSASSSISSNYLHWYQQKPDQSPKLLIKRTSNLASGVPSRFSGSGSGTDFTLTINSLEAEDAATYYCQQASSIPRMFTFGQGTKLEIKR
notes: humanized antibody of F3.121.4, VL2+VH2, murine IgG1 constant regions

Legend:
Human CD19-his protein [1] = target: T1, Human CD19-his protein; assay: ELISA, coated human CD19-His
Procedure: Human CD19-his protein (purchased from ACROBiosystems, catalog number: CD9-H52H2) was diluted with PBS to a final concentration of 4 μg/mL, and then added to a 96-well ELISA plate at 100 μl/well. The plate was sealed with a plastic film and incubated overnight at 4° C., the plate was washed 2 times with PBS the next day, and then a blocking solution [PBS+2% (w/w) BSA] was added for blocking at room temperature for 2 h. The blocking solution was poured off, and 100 nM gradiently diluted CD19 chimeric antibody or control antibody was added at 50 μl/well. After incubation at 37° C. for 2 h, the plate was washed 3 times with PBS. […] TMB substrate was added at 50 μl/well, and incubated at room temperature for 10 min, and then a stop solution (1.0 N HCl) was added at 50 μl/well. The OD450 nm values were read by an ELISA microplate reader (Multimode Plate Reader, EnSight, purchased from Perkin Elmer).

Human CD19-his protein [2] = target: T1, Human CD19-his protein; assay: ELISA on coated human CD19-His
[3] = target: T2, human CD19 on CHO-K1-human CD19 cells; assay: FACS on CHO-K1-human CD19 cells
Procedure: (§1) After the digestion was terminated, the cells were washed 2 times with a PBS buffer; and for suspension cell Raji, the supernatant of the medium was discarded by directly centrifugation, and the cell pellet was washed 2 times with PBS. After counting the cells in the previous step, the cell pellet was resuspended with [PBS+2% (w/w) BSA] blocking solution to 2×10⁶ cells/ml, and added to a 96-well FACS reaction plate at 50 μl/well, and then the sample to be tested was added at 50 μl/well, and incubated on ice for 2 h. The obtained mixture was centrifuged and washed 3 times with a PBS buffer. […] The obtained mixture was centrifuged and washed 5 times with a PBS buffer, and FACS (FACS Canto™, purchased from BD Company) was used for detection and result analysis. Data analysis was performed by software (FlowJo) to obtain the mean fluorescence intensity (MFI) of the cells. And then software (GraphPad Prism8) was used for analysis, data fitting, and EC50 value calculation. […] The same method was used to detect the binding of the chimeric antibodies to endogenous CD19-negative cells, MoLT4 cells (purchased from ATCC, CRL-1582), and CHO-K1 cells.

human CD19 on Raji cells = target: T3, human CD19 on Raji cells; assay: FACS on Raji cells
Procedure: as §1

Human CD19-his protein [4] = target: T1, Human CD19-his protein; assay: SPR Biacore, method of example 7.1, human CD19-His
Procedure: A sample buffer and a running buffer were HBS-EP+ (10 mM HEPES, 150 mM NaCl, 3 mM EDTA and 0.05% surfactant P20) (GE Healthcare; BR-1006-69). The flow-through cell was set to 25° C. The sample block was set to 16° C. Both were pretreated with the running buffer. In each cycle, an antibody to be detected was first captured with a Protein A chip, and then a single concentration of CD19 antigen protein was injected. The binding and dissociation processes of the antibody and the antigen protein were recorded, and finally Glycine pH 1.5 (GE Healthcare; BR-1003-54) was used to complete chip regeneration. The binding was measured by injecting different concentrations of recombinant human CD19-His proteins in a solution for 240 s with a flow rate of 30 μl/min. The concentration started from 200 nM (see the detailed results for the actual concentration in the test) and was diluted at 1:1, making a total of 5 concentrations. The dissociation phase was monitored for up to 600 s and was triggered by switching from sample solution to running buffer. The surface was regenerated by washing with a 10 mM glycine solution (pH 1.5) for 30 s at a flow rate of 30 μl/min. Bulk refractive index difference was corrected by subtracting the response obtained from the goat anti-human Fc surface. Blank injection was also subtracted (=double reference). For calculation of apparent KD and other kinetic parameters, Langmuir 1:1 model was used.
SPR (biacore) detection and data analysis were performed according to the method in example 7.1.

[5] = target: T4, human CD19 exon1-3-His tag protein; assay: ELISA, coated human CD19 exon 1-3-His

Binder | OD450 at 0.0001 nM (Human CD19-his protein [1]) | OD450 at 0.001 nM (Human CD19-his protein [1]) | OD450 at 0.01 nM (Human CD19-his protein [1]) | OD450 at 0.10 nM (Human CD19-his protein [1]) | OD450 at 1.00 nM (Human CD19-his protein [1]) | OD450 at 10 nM (Human CD19-his protein [1]) | OD450 at 100 nM (Human CD19-his protein [1]) | EC50 (read off the curve) (Human CD19-his protein [2]) | EC50 [3] | Maximum mean fluorescence intensity [3] | EC50 (human CD19 on Raji cells) | Maximum mean fluorescence intensity (human CD19 on Raji cells) | Kd (Human CD19-his protein [4]) | koff (Human CD19-his protein [4]) | kon (Human CD19-his protein [4]) | OD450 at 0.0001 nM [5] | OD450 at 0.001 nM [5] | OD450 at 0.01 nM [5] | OD450 at 0.10 nM [5] | OD450 at 1.00 nM [5] | other results
B1 | 0.1 OD450 | 0.13 OD450 | 0.39 OD450 | 1.7 OD450 | 2.68 OD450 | 2.58 OD450 | 3 OD450 | ~0.05 nM | 1.23 nM | 54200 MFI | 0.43 nM | 31700 MFI | 0.00058 nM | 6.84e-08 s⁻¹ | 118000 M⁻¹ s⁻¹ | 0.05 OD450 | 0.05 OD450 | 0.05 OD450 | 0.05 OD450 | 0.05 OD450 | OD450 at 10 nM [5]: 0.06 OD450; OD450 at 100 nM [5]: 0.09 OD450
B2 | 0.12 OD450 | 0.16 OD450 | 0.44 OD450 | 1.79 OD450 | 2.73 OD450 | 2.64 OD450 | 2.84 OD450 | ~0.05 nM | 1.18 nM | 51600 MFI | 0.43 nM | 30500 MFI | 0.0284 nM | 3.45e-06 s⁻¹ | 121000 M⁻¹ s⁻¹ | 0.07 OD450 | 0.06 OD450 | 0.06 OD450 | 0.07 OD450 | 0.08 OD450 | OD450 at 10 nM [5]: 0.08 OD450; OD450 at 100 nM [5]: 0.11 OD450
B3 | 0.1 OD450 | 0.14 OD450 | 0.42 OD450 | 1.61 OD450 | 2.55 OD450 | 2.49 OD450 | 3.09 OD450 | ~0.05 nM | 1.1 nM | 54400 MFI | 0.46 nM | 32000 MFI | 0.00502 nM | 6.17e-07 s⁻¹ | 123000 M⁻¹ s⁻¹ | 0.05 OD450 | 0.05 OD450 | 0.05 OD450 | 0.05 OD450 | 0.05 OD450 | OD450 at 10 nM [5]: 0.05 OD450; OD450 at 100 nM [5]: 0.09 OD450
B4 | 0.1 OD450 | 0.13 OD450 | 0.39 OD450 | 1.56 OD450 | 2.51 OD450 | 2.55 OD450 | 2.67 OD450 | ~0.05 nM | 1.19 nM | 54700 MFI | 0.44 nM | 31600 MFI | 0.000205 nM | 1.86e-08 s⁻¹ | 91100 M⁻¹ s⁻¹ | 0.05 OD450 | 0.05 OD450 | 0.05 OD450 | 0.05 OD450 | 0.05 OD450 | OD450 at 10 nM [5]: 0.05 OD450; OD450 at 100 nM [5]: 0.08 OD450
B5 | 0.1 OD450 | 0.13 OD450 | 0.37 OD450 | 1.51 OD450 | 2.42 OD450 | 2.41 OD450 | 2.55 OD450 | ~0.05 nM | 1.14 nM | 52200 MFI | 0.41 nM | 30100 MFI | 1.46 nM | 0.000195 s⁻¹ | 134000 M⁻¹ s⁻¹ | 0.05 OD450 | 0.05 OD450 | 0.05 OD450 | 0.05 OD450 | 0.05 OD450 | OD450 at 10 nM [5]: 0.05 OD450; OD450 at 100 nM [5]: 0.09 OD450
